From patent US20080124811A1 (AbbVie / Abbott, published 2008)
Positions count from the first letter of the chain named. Values belong to the binder of their own block, whether it stands above or below them.

What was measured:
[1] = target: T1, human brain natriuretic peptide, cyclic BNP (1-32c) (human, cyclic: ring closed by a disulfide bond between the two cysteine residues; biotinylated or acridinium-labelled in some assays); experiment: KinExA, solution phase
T1 construct: also called hBNP; hBNP 1-32

[2] = target: T1, human brain natriuretic peptide, cyclic …; experiment: BIAcore SPR, cAb captured on goat anti-human Fc, BNP in solution, 25 C
Description: The carboxymethyl-dextran biosensor is activated with an 8 minute injection of a 1:1 mixture of 0.4 M EDC and 0.1 NHS at 20 μL/minute. GAHFc in 10 mM sodium acetate (pH 5.0) is coupled to the activated surface with a 10 minute injection. The surface is then deactivated with 1 M ethanolamine pH 8.5 for 8 minutes followed by another 10 minute injection of GAHFc.
A frozen (−80° C.) aliquot of BNP in dH₂O at 100 μM is diluted into SPR Running Buffer to a concentration of 100 μM.
The sample solution is then switched back to SPR running buffer for another ˜7 hours. The surface is then regenerated with three 33 second pulses of 100 mM phosphoric acid at a flow rate of 100 μL/min.

[3] = target: T1, human brain natriuretic peptide, cyclic …; experiment: … sandwich CMIA; capture 106.3AM1 on microparticles, detection 3-631-436-acridinium
Description: (§1) An aliquot containing a calibrator solution was delivered to the same well of the reaction vessel as the microparticles to form a reaction mixture. The calibrator solution contained hBNP full-length peptide. The microparticles coated with the capture antibody in a Tris/BSA diluent were pipetted by the sampling probe into the appropriate wells of the reaction vessel in the sampling center. […] After the incubation, the reaction mixture was washed with the […] ® Line Diluent to remove any of the calibrator that was not captured.
(§2) The mAb-Acridinium-conjugates at about 50-100 ng/mL were dispensed into the reaction vessel and incubated for approximately 4 minutes at a temperature of about 37° C. After the incubation, the reaction vessel was washed with the […] ® Line Diluent to remove the unbound materials.
(§3) The […] ® system measures the acridinium signals which are typically measured in relative light units (hereinafter “rlu's”). Measurements were made in triplicate.

[4] = target: T1, human brain natriuretic peptide, cyclic …; experiment: … sandwich CMIA; capture 106.3AM1 on microparticles, detection 3-631-436-acridinium; second particle type
Description: (§4) An aliquot containing a calibrator solution was delivered to the same well of the reaction vessel as the microparticles to form a reaction mixture. The calibrator solution contained hBNP full-length peptide. The microparticles coated with the capture antibody in a Tris/BSA diluent were pipetted by the sampling probe into the appropriate wells of the reaction vessel in the sampling center. […] After the incubation, the reaction mixture was washed with the […] ® Line Diluent to remove any of the calibrator that was not captured. The […] ® Line Diluent is commercially available from Abbott Laboratories, Abbott Park, Ill.
as §2
A solution of hydrogen peroxide and then sodium hydroxide was added to the reaction vessel and the chemiluminescent signal was measured by the chemiluminescent microparticle immunoassay (CMIA) optical assembly of the […] ® instrument.

[5] = target: T1, human brain natriuretic peptide, cyclic …; experiment: off-rate assay on yeast-displayed scFv by flow cytometry: biotinylated cyclic BNP (1-32c), chase with unlabelled BNP 1-32c, SA:PE, first order decay fit
Description: At each time point, cells were transferred to ice, washed and incubated with SA:PE. After 30 minutes, cells were washed again and analyzed on the flow cytometer. A first order decay equation was used to fit the individual time points where m1 was the theoretical maximum mean fluorescence units (“MFU”) at time 0, m2 was the off-rate (“koff”), m3 was the background MFU due to autofluorescence, and M0 was the time x (the x being the time that is being measured) that measurements are taken.
A first order decay equation was used to fit the data.

[6] = target: T1, human brain natriuretic peptide, cyclic …; experiment: off-rate assay on yeast-displayed scFv; improvement of koff over 106.3 wt
[7] = target: T1, human brain natriuretic peptide, cyclic …; experiment: off-rate assay on yeast-displayed scFv by flow cytometry: biotinylated cyclic BNP (1-32c), chase with unlabelled BNP 1-32c, SA:PE; m2 of the first order decay fit (error 3.6694e-06, R 0.9993), time axis in sec
[8] = target: T1, human brain natriuretic peptide, cyclic …; experiment: yeast display off-rate assay, flow cytometry; t1/2 = ln 2/koff
Description: At each individual time point, yeast cells were transferred to ice to halt the reaction. Cells were then washed twice with PBS/BSA and suspended in secondary staining reagents, specifically, SA:PE and GAM:FITC. Cells were incubated on ice for 30 minutes, washed twice and then analyzed on the FACS Aria flow cytometer. […] A first order decay equation was used to fit the data.

[9] = target: T1, human brain natriuretic peptide, cyclic …; experiment: surface plasmon resonance (BIAcore)
[10] = target: T1, human brain natriuretic peptide, cyclic …; experiment: off-rate assay on yeast-displayed scFv by flow cytometry: biotinylated cyclic BNP (1-32c), chase with unlabelled BNP 1-32c, SA:PE, first order decay fit; remark: listed apart in the source
[11] = target: T1, human brain natriuretic peptide, cyclic …; experiment: off-rate assay on yeast-displayed scFv; improvement of koff over 3-631-436 wt
[12] = target: T1, human brain natriuretic peptide, cyclic …; experiment: … sandwich CMIA; capture 3-631-436 on microparticles, detection 106.3AM1-acridinium
Description: as §1, §2, §3

[13] = target: T1, human brain natriuretic peptide, cyclic …; experiment: … sandwich CMIA; capture 3631436 ms on microparticles, detection 106.3AM2-acridinium
Description: Particles were washed and overcoated with BSA. These particles were used to capture BNP peptide in the assay during the first (1st) incubation with Architect BNP calibrators or specimens.
as §4
The mAb-Acridinium-conjugates at about 100 ng/mL were dispensed into the reaction vessel and incubated for approximately 4 minutes at a temperature of about 37° C. After the incubation, the reaction vessel was washed with the […] ® Line Diluent to remove the unbound materials.

[14] = target: T1, human brain natriuretic peptide, cyclic …; experiment: KinExA, solution phase; remark: listed apart in the source
[15] = target: T1, human brain natriuretic peptide, cyclic …; experiment: BIAcore SPR, antibody captured on goat anti-mouse Fc, BNP in solution, 25 C
Description: The carboxymethyl-dextran biosensor is activated with a 1:1 mixture of 0.4 M EDC and 0.1 NHS at 20 μL/minute. GAMFc in 10 mM sodium acetate (pH 5.0) is coupled to the activated surface with a 10 minute injection. The surface is then deactivated with 1 M ethanolamine pH 8.5 for 8 minutes followed by another 10 minute injection of GAMFc. This is followed with a biosensor conditioning of ten 60 second injections of 150 mM H₃PO₄ at a flow rate of 30 μL/min. ˜14 kRU, resonance units, of GAMFc is coupled to the biosensor in each flow cell.
(§5) After loading each Ab onto the biosensor, all flow cells are allowed to equilibrate for 5-6 minutes with SPR running buffer at a flow rate of 75 μL/min before a 150 μL injection of BNP or running buffer followed by 360 seconds of dissociation time. Subsequently, the flow rate is changed to 30-100 μL/min and the surface is then regenerated with three 33-60 second pulses of 100-150 mM phosphoric acid at a flow rate of 30-100 μL/min.

[16] = target: T1, human brain natriuretic peptide, cyclic …; experiment: … sandwich CMIA; capture 3-631-436 on microparticles, detection 106.3AM1-acridinium; second particle type
Description: as §1, §2, §3

[17] = target: T1, human brain natriuretic peptide, cyclic …; experiment: Biacore SPR, antibody captured on goat anti-mouse Fc, BNP injected, 1:1 Langmuir fit
Description: GAMFc in 10 mM sodium acetate (pH 5.0) is coupled to the activated surface with a 10 minute injection. The surface is then deactivated with 1 M ethanolamine pH 8.5 for 8 minutes followed by another 10 minute injection of GAMFc. This is followed with a biosensor conditioning of ten 60 second injections of 150 mM H₃PO₄ at a flow rate of 30 μL/min. ˜14 kRU, resonance units, of GAMFc is coupled to the biosensor in each flow cell.
as §5

B1: wild-type 106.3 chimeric antibody (cAb) (antibody, human IgG1, V domains shown)
VH: QIQLVQSGPELRKPGETVKISCKGSGYTFTHYGINWVKQTPRKDLKWMGWINTHTGEPIYADDFKGRFAFSLETSANTAYLQINNLNNGDMGTYFCTRSHRFGLDYWGQGTSVTVSS
VL: DNVLTQSPPSLAVSLGQRATISCKASQSVDYNGDSYLNWYQQKPGQPPKFLIYAASNLESGIPARFSGSGSGTDFNLNIHPVEEEDAATYYCQQSNEDPFTFGSGTKLEIK
notes: Chimeric mouse variable domains on human IgG1/human kappa; also called anti-BNP WT/WT
Kd [1]: 0.0017 nM
Kd [2]: 0.019 nM
koff [2]: 0.00015 s⁻¹
kon [2]: 7.8e+06 M⁻¹ s⁻¹

B3: H2 288 (scFv)
scFv (VH-linker-VL with V5 and 6His tags), displayed on yeast: QLVQSGPELRKPGETVKISCKGSGYTFTHYGINWVKQTPRKDLKWMGWINTHTGEAYYADDFKGRFAFSLETSANTAYLQINNLNNGDMGTYFCTRSHRFGLDYWGQGTSVTVSSGPAKELTPLKEAKVSDNVLTQSPPSLAVSLGQRATISCKASQSVDYNGDSYLNWYQQKPGQPPKFLIYAASNLESGIPARFSGSGSGTDFNLNIHPVEEEDAATYYCQQSNEDPFTFGSGTKLEIKRAAALESRGPFEGKPIPNPLLGLDSTRTGHHHHHH
notes: member of group m4
koff [5]: 3.7e-05 s⁻¹
Fold Improvement [6]: 2.3 fold

B5: 106.3 wt (Mouse IgG1) (antibody, V domains shown)
VH: QLVQSGPELRKPGETVKISCKGSGYTFTHYGINWVKQTPRKDLKWMGWINTHTGEPIYADDFKGRFAFSLETSANTAYLQINNLNNGDMGTYFCTRSHRFGLDYWGQGTSVTVSS
VL: DNVLTQSPPSLAVSLGQRATISCKASQSVDYNGDSYLNWYQQKPGQPPKFLIYAASNLESGIPARFSGSGSGTDFNLNIHPVEEEDAATYYCQQSNEDPFTFGSGTKLEIKR
notes: also called HB-12044
Kd [9]: 0.018 nM
koff [9]: 0.00022 s⁻¹
kon [9]: 1.2e+07 M⁻¹ s⁻¹

B6: 500-2 (scFv)
scFv (VH-linker-VL with V5 and 6His tags), displayed on yeast: QVQLQQPGAELVRPGASVKLSCKASGYTFTSYWMNWVKQRPEQGLEWIGRIDPYDSETHYNQKFKDKAILTVDKSSSTAFVQLTSLTSEDSAVYYCVSDGYWGAGTTVTVSSGPAKELTPLKEAKVSDVVMTQTPLTLSVTTGQPASISCKSSQSLLDSDGKTYLNWLFQRPGESPKLLIYWTTKLESGVPDRFTGSGSGTDFTLKISRVEAEDLGVYYCLQATHFPWTFGGGTKLEIKRAAALESRGPFEGKPIPNPLLGLDSTRTGHHHHHH
notes: selected by on/off-rate sorting; member of group m17
koff [10]: 0.00032 s⁻¹
Fold Improvement [11]: 15 fold

B9: L2 7 (scFv)
scFv (VH-linker-VL with V5 and 6His tags), displayed on yeast: B6 scFv (VH-linker-VL with V5 and 6His tags), displayed on yeast with T183M
notes: selected by equilibrium sorting; member of group m17
koff [10]: 0.00015 s⁻¹
Fold Improvement [11]: 32 fold

B12: L2 10 (scFv)
scFv (VH-linker-VL with V5 and 6His tags), displayed on yeast: B6 scFv (VH-linker-VL with V5 and 6His tags), displayed on yeast with W182R, T184N
notes: selected by off-rate sorting; member of group m17
koff [10]: 0.0019 s⁻¹
Fold Improvement [11]: 3 fold

B13: L2 9 (scFv)
scFv (VH-linker-VL with V5 and 6His tags), displayed on yeast: B6 scFv (VH-linker-VL with V5 and 6His tags), displayed on yeast with W182V, T184D
notes: as for B12
koff [10]: 0.0005 s⁻¹
Fold Improvement [11]: 10 fold

Continued, values first:

Kd [1]: 0.0093 nM
Ratio B/A (RLU at 30 pg/mL over 0 pg/mL) [3]: 1.6
Ratio C/A (RLU at 300 pg/mL over 0 pg/mL) [3]: 17.5
Ratio D/A (RLU at 1000 pg/mL over 0 pg/mL) [3]: 126
Ratio E/A (RLU at 2000 pg/mL over 0 pg/mL) [3]: 394
Ratio B/A (RLU at 30 pg/mL over 0 pg/mL) [4]: 1
Ratio C/A (RLU at 300 pg/mL over 0 pg/mL) [4]: 5.5
Ratio D/A (RLU at 1000 pg/mL over 0 pg/mL) [4]: 40.5
Ratio E/A (RLU at 2000 pg/mL over 0 pg/mL) [4]: 132
Kd [2]: 0.0019 nM
koff [2]: 2.4e-05 s⁻¹
kon [2]: 1.3e+07 M⁻¹ s⁻¹
B2: 106.3 AM1 chimeric antibody (antibody, V domains shown)
VH: B1 VH with P58A, I59Y
VL: B1 VL with S26N, Q27W, S28P
modifications: Conjugated to acridinium or biotinylated in the sandwich assays (Examples 4 and 7); the sites are not defined.
notes: PTA-6987; Acridinium-conjugated or biotinylated in the sandwich assays

koff [7]: 8.44e-05 s⁻¹
koff [5]: 8.4e-05 s⁻¹
half-life (t1/2) [8]: 2.28 h
B4: 106.3 single-chain variable fragment (scFv), unmutated, on yeast (scFv)
chain: QIQLVQSGPELRKPGETVKISCKGSGYTFTHYGINWVKQTPRKDLKWMGWINTHTGEPIYADDFKGRFAFSLETSANTAYLQINNLNNGDMGTYFCTRSHRFGLDYWGQGTSVTVSSGPAKELTPLKEAKVSDNVLTQSPPSLAVSLGQRATISCKASQSVDYNGDSYLNWYQQKPGQPPKFLIYAASNLESGIPARFSGSGSGTDFNLNIHPVEEEDAATYYCQQSNEDPFTFGSGTKLEIK

koff [10]: 0.0014 s⁻¹
Fold Improvement [11]: 4 fold
B7: L2 4 (scFv)
scFv (VH-linker-VL with V5 and 6His tags), displayed on yeast: B6 scFv (VH-linker-VL with V5 and 6His tags), displayed on yeast with W182H
notes: as for B9

koff [10]: 0.00053 s⁻¹
Fold Improvement [11]: 9 fold
B8: 500-1 (scFv)
scFv (VH-linker-VL with V5 and 6His tags), displayed on yeast: B6 scFv (VH-linker-VL with V5 and 6His tags), displayed on yeast with T183M, T184D
notes: as for B6

koff [10]: 0.00017 s⁻¹
Fold Improvement [11]: 28 fold
B10: L2 8 (scFv)
scFv (VH-linker-VL with V5 and 6His tags), displayed on yeast: B6 scFv (VH-linker-VL with V5 and 6His tags), displayed on yeast with T183M, T184N
notes: as for B9

koff [10]: 0.00049 s⁻¹
Fold Improvement [11]: 10 fold
B11: 500-10 (scFv)
scFv (VH-linker-VL with V5 and 6His tags), displayed on yeast: B6 scFv (VH-linker-VL with V5 and 6His tags), displayed on yeast with W182V, T184D, K185I
notes: as for B6

koff [10]: 0.00025 s⁻¹
Fold Improvement [11]: 19 fold
B14: L2 1 (scFv)
scFv (VH-linker-VL with V5 and 6His tags), displayed on yeast: B6 scFv (VH-linker-VL with V5 and 6His tags), displayed on yeast with W182Q, T183N
notes: as for B9

Ratio B/A (RLU at 30 pg/mL over 0 pg/mL) [12]: 1.9
Ratio C/A (RLU at 300 pg/mL over 0 pg/mL) [12]: 27.8
Ratio D/A (RLU at 1000 pg/mL over 0 pg/mL) [12]: 196
Ratio E/A (RLU at 2000 pg/mL over 0 pg/mL) [12]: 471
Ratio B/A (RLU at 30 pg/mL over 0 pg/mL) [13]: 2.7
Ratio C/A (RLU at 300 pg/mL over 0 pg/mL) [13]: 14.3
Ratio D/A (RLU at 1000 pg/mL over 0 pg/mL) [13]: 32.4
Ratio E/A (RLU at 2000 pg/mL over 0 pg/mL) [13]: 198
Ratio F/A (RLU at 5000 pg/mL over 0 pg/mL) [13]: 595
Kd [14]: 0.286 nM
Kd [15]: 0.38 nM
koff [15]: 0.0025 s⁻¹
kon [15]: 6.7e+06 M⁻¹ s⁻¹
Ratio B/A (RLU at 30 pg/mL over 0 pg/mL) [16]: 2.4
Ratio C/A (RLU at 300 pg/mL over 0 pg/mL) [16]: 23.9
Ratio D/A (RLU at 1000 pg/mL over 0 pg/mL) [16]: 145
Ratio E/A (RLU at 2000 pg/mL over 0 pg/mL) [16]: 409
Kd [17]: 0.375 nM
B15: monoclonal antibody 3-631-436 (wild-type mouse mAb from hybridoma cell line 3-631-436, A.T.C.C. PTA-6476) (antibody, V domains shown)
VH: QVQLQQPGAELVRPGASVKLSCKASGYTFTSYWMNWVKQRPEQGLEWIGRIDPYDSETHYNQKFKDKAILTVDKSSSTAFVQLTSLTSEDSAVYYCVSDGYWGAGTTVTVSS
VL: DVVMTQTPLTLSVTTGQPASISCKSSQSLLDSDGKTYLNWLFQRPGESPKLLIYVVSKLESGVPDRFTGSGSGTDFTLKISRVEAEDLGVYYCLQATHFPWTFGGGTKLEIK
modifications: In the sandwich assays the antibody was coupled to particles, biotinylated or acridinium-labelled; the letters do not carry this.
notes: the whole entry is named for each chain and must be cut at the linker; Coated on particles, biotinylated or acridinium-conjugated in the sandwich assays

Kd [17]: 0.363 nM
koff [17]: 0.0029 s⁻¹
kon [17]: 8.4e+06 M⁻¹ s⁻¹
B16: 3-631-436 (mIgG2bκ, IgG name AM1) (antibody, V domains shown)
VH: B15 VH
VL: DVVMTQTPLTLSVTTGQPASISCKSSQSLLDSDGKTYLNWLFQRPGESPKLLIYVVSKLESGVPDRFTGSGSGTDFTLKISRVEAEDLGVYYCLQATHFPWTFGGGTKLEIKR
notes: recombinant wild-type variable domains on mouse IgG2b/kappa
